US12281147

How the values were obtained:
human IL-21R (human) [1] = molecular target: human IL-21R (human) (UniProt Q9HBE5); assay: AlphaSeq yeast mating assay, unbuffered media
human IL-21R (human) [2] = molecular target: human IL-21R (human) (UniProt Q9HBE5); assay: AlphaSeq yeast mating assay, pH 5 media
human IL-21R (human) [3] = molecular target: human IL-21R (human) (UniProt Q9HBE5); assay: AlphaSeq yeast mating assay, pH 6 media
human IL-21R (human) [4] = molecular target: human IL-21R (human) (UniProt Q9HBE5); assay: AlphaSeq yeast mating assay, pH 7 media

Substance | Kd (human IL-21R (human) [1]) [µM] | Kd (human IL-21R (human) [2]) [µM] | Kd (human IL-21R (human) [3]) [µM] | Kd (human IL-21R (human) [4]) [µM]
IL-21_Q80D (from UniProt Q9HBE4 32-152) (ligand) | 660 | 580 | – | –
IL-21_V53N (from UniProt Q9HBE4 32-152) (ligand) | 560 | – | – | 0.99
IL-21_I37G (from UniProt Q9HBE4 32-152) (ligand) | 170 | 82 | – | –
IL-21_F79D (from UniProt Q9HBE4 32-152) (ligand) | 170 | 52 | 2.7 | –
IL-21_I37E (from UniProt Q9HBE4 32-152) (ligand) | 110 | 1.5 | 0.55 | –
IL-21_M39P (from UniProt Q9HBE4 32-152) (ligand) | 260 | – | – | –
IL-21_D44T (from UniProt Q9HBE4 32-152) (ligand) | – | 0.35 | 0.044 | 0.16
IL-21_I95K (from UniProt Q9HBE4 32-152) (ligand) | 260 | – | – | 0.24
IL-21_I43L (from UniProt Q9HBE4 32-152) (ligand) | 1.5 | 0.058 | 0.02 | –
IL-21_V53P (from UniProt Q9HBE4 32-152) (ligand) | 270 | 270 | 27 | –
IL-21_R34F (from UniProt Q9HBE4 32-152) (ligand) | – | 0.39 | 0.052 | 0.11
IL-21_V46D (from UniProt Q9HBE4 32-152) (ligand) | 270 | – | 12 | –
IL-21_Y52N (from UniProt Q9HBE4 32-152) (ligand) | 110 | – | – | 0.24
IL-21_D47P (from UniProt Q9HBE4 32-152) (ligand) | 530 | – | 27 | –
IL-21_Y52K (from UniProt Q9HBE4 32-152) (ligand) | 340 | – | 2.8 | –
IL-21_R38K (from UniProt Q9HBE4 32-152) (ligand) | 250 | – | – | 7
IL-21_A75N (from UniProt Q9HBE4 32-152) (ligand) | 780 | – | 28 | –
IL-21_M39D (from UniProt Q9HBE4 32-152) (ligand) | 800 | – | 76 | –
IL-21_R34P (from UniProt Q9HBE4 32-152) (ligand) | 2.7 | 1.4 | – | –
IL-21_D66R (from UniProt Q9HBE4 32-152) (ligand) | 2.7 | 0.025 | – | –
IL-21_V53A (from UniProt Q9HBE4 32-152) (ligand) | 1.1 | – | – | 0.056
IL-21_M39I (from UniProt Q9HBE4 32-152) (ligand) | 2.5 | – | – | 0.035
IL-21_L49E (from UniProt Q9HBE4 32-152) (ligand) | 540 | 600 | – | –
IL-21_R38Q (from UniProt Q9HBE4 32-152) (ligand) | 270 | – | 12 | –
IL-21_R34V (from UniProt Q9HBE4 32-152) (ligand) | – | 0.14 | 0.027 | 0.11
IL-21_F79T (from UniProt Q9HBE4 32-152) (ligand) | – | 92 | 3.3 | 1.4

Further lines, results first:

Kd (human IL-21R (human) [1]) [µM] | Kd (human IL-21R (human) [2]) [µM] | Kd (human IL-21R (human) [3]) [µM] | Kd (human IL-21R (human) [4]) [µM] | Substance
250 | – | – | – | IL-21_R105K (from UniProt Q9HBE4 32-152) (ligand)
150 | 53 | 2 | – | IL-21_I95H (from UniProt Q9HBE4 32-152) (ligand)
890 | – | – | – | IL-21_M39K (from UniProt Q9HBE4 32-152) (ligand)
640 | – | – | 0.053 | IL-21_V46T (from UniProt Q9HBE4 32-152) (ligand)
1.4 | – | – | 0.24 | IL-21_P108D (from UniProt Q9HBE4 32-152) (ligand)
590 | 240 | 92 | – | IL-21_L103E (from UniProt Q9HBE4 32-152) (ligand)
2.8 | – | – | 0.55 | IL-21_P108E (from UniProt Q9HBE4 32-152) (ligand)
2.4 | 0.046 | – | – | IL-21_E93T (from UniProt Q9HBE4 32-152) (ligand)
340 | 75 | – | – | IL-21_F76T (from UniProt Q9HBE4 32-152) (ligand)
85 | 0.17 | 0.026 | – | IL-21_S74H (from UniProt Q9HBE4 32-152) (ligand)
160 | – | 11 | – | IL-21_I96A (from UniProt Q9HBE4 32-152) (ligand)
270 | 100 | 6.9 | – | IL-21_F76E (from UniProt Q9HBE4 32-152) (ligand)
– | 0.043 | 0.011 | 0.021 | IL-21_L42Y (from UniProt Q9HBE4 32-152) (ligand)
330 | – | 4.6 | – | IL-21_D47S (from UniProt Q9HBE4 32-152) (ligand)
– | 0.052 | 0.036 | 0.056 | IL-21_L120M (from UniProt Q9HBE4 32-152) (ligand)
1 | 10 | 0.55 | – | IL-21_K106N (from UniProt Q9HBE4 32-152) (ligand)

Kd (human IL-21R (human) [1]) [µM] | Kd (human IL-21R (human) [2]) [µM] | Kd (human IL-21R (human) [3]) [µM] | Kd (human IL-21R (human) [4]) [µM] | Substance
2.5 | – | 0.062 | – | IL-21_N51V (from UniProt Q9HBE4 32-152) (ligand)
340 | – | 170 | – | IL-21_M39R (from UniProt Q9HBE4 32-152) (ligand)
– | 1.2 | 0.21 | 0.21 | IL-21_L120V (from UniProt Q9HBE4 32-152) (ligand)
– | 15 | 0.11 | 0.16 | IL-21_I45S (from UniProt Q9HBE4 32-152) (ligand)
2.7 | – | – | 0.088 | IL-21_V57L (from UniProt Q9HBE4 32-152) (ligand)
– | 65 | 4.4 | 4.5 | IL-21_F79R (from UniProt Q9HBE4 32-152) (ligand)
110 | – | 30 | – | IL-21_L56E (from UniProt Q9HBE4 32-152) (ligand)
590 | – | 7.3 | – | IL-21_D44P (from UniProt Q9HBE4 32-152) (ligand)
2.6 | – | – | 0.041 | IL-21_S142I (from UniProt Q9HBE4 32-152) (ligand)
250 | – | – | 12 | IL-21_L42K (from UniProt Q9HBE4 32-152) (ligand)
330 | 150 | – | – | IL-21_M39E (from UniProt Q9HBE4 32-152) (ligand)
100 | – | 6.9 | – | IL-21_L56T (from UniProt Q9HBE4 32-152) (ligand)
160 | – | – | – | IL-21_L49R (from UniProt Q9HBE4 32-152) (ligand)
170 | – | – | – | IL-21_I148S (from UniProt Q9HBE4 32-152) (ligand)
– | 79 | 14 | 9.2 | IL-21_F76H (from UniProt Q9HBE4 32-152) (ligand)
110 | – | 8.4 | – | IL-21_R38E (from UniProt Q9HBE4 32-152) (ligand)
